For 94 variants, protein stability index results are on record in the supplement of paper PMC10567573.

The labels stand for the following.
B1: C20orf112 (parent)
chain: YANGGLNYSYRGYGALSSNLQPPA
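Further: lentivirally expressed fusions sorted by FACS into six bins by GFP to DsRed ratio, PSI derived from sequencing read proportions per bin multiplied by bin number.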

In this series the parent is B1. Nature of the series: protein stability index of a GFP-peptide fusion (GPS, HEK-293T) (PSI 1-6); higher = more stable. The conditions noted are these: c terminus: a fixed tail appended.
On to YANGGLNYSYRGYKALSSNLQPPA [G14K], for which the protein stability index is 2.21. The same measure for YANGGLNYSYRGYEALSSNLQPPA [G14E]: 2.45. In the case of YANGGLNYSYRGYSALSSNLQPPA [G14S], the protein stability index was 2.32. For YANGGLNYSYRGYPALSSNLQPPA [G14P], the protein stability index is 2.54.

For the variant YANGGLNYSYRGYVALSSNLQPPA [G14V], the protein stability index worked out at 2.4. The same measure for YANGGLNYSYRGYIALSSNLQPPA [G14I]: 3.6. As to YANGGLNYSYRGYTALSSNLQPPA [G14T], the protein stability index is 2.8. For the variant YANGGLNYSYRGYQALSSNLQPPA [G14Q], the protein stability index turned out to be 1.76.

With YANGGLNYSYRGYLALSSNLQPPA [G14L], the protein stability index is 3.28. Under YANGGLNYSYRGYYALSSNLQPPA [G14Y] stands 2.91. The same measure for YANGGLNYSYRGYAALSSNLQPPA [G14A]: 1.76; for YANGGLNYSYRGYFALSSNLQPPA [G14F]: 2.52. Under YANGGLNYSYRGYNALSSNLQPPA [G14N] stands 2.87. Turning to YANGGLNYSYRGYMALSSNLQPPA [G14M], the protein stability index came to 2.18.

For YANGGLNYSYRGYCALSSNLQPPA [G14C], the protein stability index was determined as 3.39.

On to YANGGLNYSYRGYWALSSNLQPPA [G14W], for which the protein stability index is 3.05. Take YANGGLNYSYRGYHALSSNLQPPA [G14H]: the protein stability index was determined as 2.07. The same measure for YANGGLNYSYRGYDALSSNLQPPA [G14D]: 1.54; for YANGGLNYSYRGYRALSSNLQPPA [G14R]: 2.7; for YANGGLNYSYREYGALSSNLQPPA [G12E]: 1.63. The same measure for YANGGLNYSYRFYGALSSNLQPPA [G12F]: 1.67; for YANGGLNYSYRHYGALSSNLQPPA [G12H]: 2.55.

Regarding YANGGLNYSYRTYGALSSNLQPPA [G12T], the protein stability index is 2.23.

As for YANGGLNYSYRAYGALSSNLQPPA [G12A], the protein stability index amounted to 2.46. The same measure for YANGGLNYSYRKYGALSSNLQPPA [G12K]: 1.97; for YANGGLNYSYRYYGALSSNLQPPA [G12Y]: 3; for YANGGLNYSYRNYGALSSNLQPPA [G12N]: 1.93.

In the case of YANGGLNYSYRSYGALSSNLQPPA [G12S], the protein stability index stood at 1.91. The same measure for YANGGLNYSYRRYGALSSNLQPPA [G12R]: 1.08; for YANGGLNYSYRCYGALSSNLQPPA [G12C]: 2.85. The same measure for YANGGLNYSYRMYGALSSNLQPPA [G12M]: 2.48; for YANGGLNYSYRLYGALSSNLQPPA [G12L]: 2.31. The same measure for YANGGLNYSYRQYGALSSNLQPPA [G12Q]: 1.86. As to YANGGLNYSYRIYGALSSNLQPPA [G12I], the protein stability index came out at 2.72. Under YANGGLNYSYRDYGALSSNLQPPA [G12D] stands 1.42. Under YANGGLNYSYRVYGALSSNLQPPA [G12V] stands 3.16. As to YANGGLNYSYRWYGALSSNLQPPA [G12W], the protein stability index turned out to be 2.08. For the variant YANGGLNYSYRPYGALSSNLQPPA [G12P], the protein stability index is 1.91. Under YANGGLNYSYRGYGALSANLQPPA [S18A] stands 2.15. Regarding YANGGLNYSYRGYGALSPNLQPPA [S18P], the protein stability index was 2.2. Under YANGGLNYSYRGYGALSGNLQPPA [S18G] stands 1.58; under YANGGLNYSYRGYGALSVNLQPPA [S18V], 1.73; under YANGGLNYSYRGYGALSTNLQPPA [S18T], 2.05. Take YANGGLNYSYRGYGALSENLQPPA [S18E]: the protein stability index is 1.56. For YANGGLNYSYRGYGALSMNLQPPA [S18M], the protein stability index is 2.06. Under YANGGLNYSYRGYGALSRNLQPPA [S18R] stands 2.21; under YANGGLNYSYRGYGALSKNLQPPA [S18K], 1.61. Take YANGGLNYSYRGYGALSCNLQPPA [S18C]: the protein stability index was determined as 2.17. On to YANGGLNYSYRGYGALSINLQPPA [S18I], for which the protein stability index was determined as 1.78.

For the variant YANGGLNYSYRGYGALSDNLQPPA [S18D], the protein stability index was determined as 1.42. Consider YANGGLNYSYRGYGALSHNLQPPA [S18H], for which the protein stability index turned out to be 1.8. On to YANGGLNYSYRGYGALSWNLQPPA [S18W], for which the protein stability index worked out at 2.07. With YANGGLNYSYRGYGALSLNLQPPA [S18L], the protein stability index was found to be 1.85. Under YANGGLNYSYRGYGALSYNLQPPA [S18Y] stands 1.67; under YANGGLNYSYRGYGALSQNLQPPA [S18Q], 2.6. Under YANGGLNYSYRGYGALSNNLQPPA [S18N] stands 1.57. The same measure for YANGGLNYSYRGYGALSFNLQPPA [S18F]: 1.72; for YANGGLNYSYRGYGALPSNLQPPA [S17P]: 1.9; for YANGGLNYSYRGYGALVSNLQPPA [S17V]: 2.33. Turning to YANGGLNYSYRGYGALNSNLQPPA [S17N], the protein stability index came to 1.88. The same measure for YANGGLNYSYRGYGALGSNLQPPA [S17G]: 3.12. Take YANGGLNYSYRGYGALYSNLQPPA [S17Y]: the protein stability index was 2.53. With YANGGLNYSYRGYGALFSNLQPPA [S17F], the protein stability index worked out at 2.49. Under YANGGLNYSYRGYGALHSNLQPPA [S17H] stands 1.9; under YANGGLNYSYRGYGALCSNLQPPA [S17C], 2.2; under YANGGLNYSYRGYGALWSNLQPPA [S17W], 1.85. The same measure for YANGGLNYSYRGYGALASNLQPPA [S17A]: 1.58; for YANGGLNYSYRGYGALMSNLQPPA [S17M]: 2.17. Take YANGGLNYSYRGYGALDSNLQPPA [S17D]: the protein stability index is 1.87. In the case of YANGGLNYSYRGYGALISNLQPPA [S17I], the protein stability index was 3.55. With YANGGLNYSYRGYGALTSNLQPPA [S17T], the protein stability index was 2.15. As to YANGGLNYSYRGYGALQSNLQPPA [S17Q], the protein stability index amounted to 1.55. With YANGGLNYSYRGYGALKSNLQPPA [S17K], the protein stability index was determined as 1.94. Under YANGGLNYSYRGYGALRSNLQPPA [S17R] stands 2.56; under YANGGLNYSYRGYGALESNLQPPA [S17E], 2.23; under YANGGLNYSYRGYGALLSNLQPPA [S17L], 1.39. Take YANGGLNYSYRGYGALSSNKQPPA [L20K]: the protein stability index came out at 2.27. As to YANGGLNYSYRGYGALSSNEQPPA [L20E], the protein stability index was found to be 1.37. As to YANGGLNYSYRGYGALSSNCQPPA [L20C], the protein stability index amounted to 2.7. For the variant YANGGLNYSYRGYGALSSNRQPPA [L20R], the protein stability index amounted to 1.73. Turning to YANGGLNYSYRGYGALSSNNQPPA [L20N], the protein stability index worked out at 2.11.

Consider YANGGLNYSYRGYGALSSNHQPPA [L20H], for which the protein stability index came out at 1.69. For YANGGLNYSYRGYGALSSNQQPPA [L20Q], the protein stability index came to 1.71.

As to YANGGLNYSYRGYGALSSNAQPPA [L20A], the protein stability index was 1.79.

YANGGLNYSYRGYGALSSNGQPPA [L20G]: the protein stability index was found to be 2.28. As for YANGGLNYSYRGYGALSSNSQPPA [L20S], the protein stability index was 2.34.

With YANGGLNYSYRGYGALSSNFQPPA [L20F], the protein stability index was 1.55. The same measure for YANGGLNYSYRGYGALSSNTQPPA [L20T]: 1.55; for YANGGLNYSYRGYGALSSNPQPPA [L20P]: 1.88. Under YANGGLNYSYRGYGALSSNVQPPA [L20V] stands 1.84; under YANGGLNYSYRGYGALSSNDQPPA [L20D], 1.36; under YANGGLNYSYRGYGALSSNIQPPA [L20I], 2.54. On to YANGGLNYSYRGYGALSSNMQPPA [L20M], for which the protein stability index is 1.52. Under YANGGLNYSYNGYGALSSNLQPPA [R11N] stands 2.27.
